Results as given in patent publication US20210246166A1 (Bayer, published 2021).
Numbered stars: 1 amine (or outer) side, 2 acyl side, 3 side chain; on linkers, the order of the positions; unused ones are H or OH. Bridge positions count the residues as written; N and C are the ends. Square brackets hold non-standard residues; d marks the D form. Ends that are not written are not given here. NH(CH2CH2O)4CH2CO = O=C(COCCOCCOCCOCCN[*:1])[*:2]; Oic = O=C(O)[C@@H]1C[C@@H]2CCCC[C@@H]2N1; PEG8 = NCCOCCOCCOCCOCCOCCOCCOCCOCCC(=O)O; tBuAla = CC(C)(C)C[C@H](N)C(=O)O; Cit = NC(=O)NCCC[C@H](N)C(=O)O; Pen = CC(C)(S)[C@H](N)C(=O)O; NMeC = CN[C@@H](CS)C(=O)O; PEG3 = NCCOCCOCCOCCC(=O)O; Orn = NCCC[C@H](N)C(=O)O; Aze = O=C(O)[C@@H]1CCN1; Nva = CCC[C@H](N)C(=O)O; Abu = CC[C@H](N)C(=O)O; PEG2 = NCCOCCOCCC(=O)O; Sar = CNCC(=O)O

B1: LIC+SRS-((tBu)A)-PPI-(Pen)+IPD-NH2 (peptide)
peptide: LICSRS[tBuAla]PPI[Pen]IPD-NH2
modifications: disulfide 3-11; N-terminus assumed
SMILES: CC[C@H](C)[C@H](NC(=O)[C@@H](N)CC(C)C)C(=O)N[C@H]1CSSC(C)(C)[C@@H](C(=O)N[C@H](C(=O)N2CCC[C@H]2C(=O)N[C@@H](CC(=O)O)C(N)=O)[C@@H](C)CC)NC(=O)[C@H]([C@@H](C)CC)NC(=O)[C@@H]2CCCN2C(=O)[C@@H]2CCCN2C(=O)[C@H](CC(C)(C)C)NC(=O)[C@H](CO)NC(=O)[C@H](CCCNC(=N)N)NC(=O)[C@H](CO)NC1=O
B2: (Orn)-IC+SRS-((tBu)A)-PPI-((N-Me)C)+IPD-NH2 (peptide)
peptide: [Orn]ICSRS[tBuAla]PPI[NMeC]IPD-NH2
modifications: disulfide 3-11; N-terminus assumed
SMILES: CC[C@H](C)[C@H](NC(=O)[C@@H](N)CCCN)C(=O)N[C@H]1CSSC[C@@H](C(=O)N[C@H](C(=O)N2CCC[C@H]2C(=O)N[C@@H](CC(=O)O)C(N)=O)[C@@H](C)CC)N(C)C(=O)[C@H]([C@@H](C)CC)NC(=O)[C@@H]2CCCN2C(=O)[C@@H]2CCCN2C(=O)[C@H](CC(C)(C)C)NC(=O)[C@H](CO)NC(=O)[C@H](CCCNC(=N)N)NC(=O)[C@H](CO)NC1=O
B3: WIC+SRS-((tBu)A)-PPI-(Pen)+IPD-NH2 (peptide)
peptide: WICSRS[tBuAla]PPI[Pen]IPD-NH2
modifications: disulfide 3-11; N-terminus assumed
SMILES: CC[C@H](C)[C@H](NC(=O)[C@@H](N)Cc1c[nH]c2ccccc12)C(=O)N[C@H]1CSSC(C)(C)[C@@H](C(=O)N[C@H](C(=O)N2CCC[C@H]2C(=O)N[C@@H](CC(=O)O)C(N)=O)[C@@H](C)CC)NC(=O)[C@H]([C@@H](C)CC)NC(=O)[C@@H]2CCCN2C(=O)[C@@H]2CCCN2C(=O)[C@H](CC(C)(C)C)NC(=O)[C@H](CO)NC(=O)[C@H](CCCNC(=N)N)NC(=O)[C@H](CO)NC1=O
B4: ((N-Me)G)-IC+SRS-((tBu)A)-PPI-(Pen)+IP-(PEG8(28 atoms))-NH2 (peptide)
peptide: [Sar]ICSRS[tBuAla]PPI[Pen]IP-{PEG8-NH2}
modifications: disulfide 3-11
B5: AIC+SRSLP-(Oic)-I-(Pen)+IP-NH2 (peptide)
peptide: AICSRSLP[Oic]I[Pen]IP-NH2
modifications: disulfide 3-11; N-terminus assumed
SMILES: CC[C@H](C)[C@H](NC(=O)[C@H](C)N)C(=O)N[C@H]1CSSC(C)(C)[C@@H](C(=O)N[C@H](C(=O)N2CCC[C@H]2C(N)=O)[C@@H](C)CC)NC(=O)[C@H]([C@@H](C)CC)NC(=O)[C@@H]2C[C@@H]3CCCC[C@@H]3N2C(=O)[C@@H]2CCCN2C(=O)[C@H](CC(C)C)NC(=O)[C@H](CO)NC(=O)[C@H](CCCNC(=N)N)NC(=O)[C@H](CO)NC1=O
B6: ((N-Me)G)-IC+SRS-((tBu)A)-PPI-(Pen)+IP-(PEG4-CH2CO2H (15 atoms))-NH2 (peptide)
peptide: [Sar]ICSRS[tBuAla]PPI[Pen]IP[NH(CH2CH2O)4CH2CO]-NH2
modifications: disulfide 3-11; N-terminus assumed
SMILES: CC[C@H](C)[C@H](NC(=O)CNC)C(=O)N[C@H]1CSSC(C)(C)[C@@H](C(=O)N[C@H](C(=O)N2CCC[C@H]2C(=O)NCCOCCOCCOCCOCC(N)=O)[C@@H](C)CC)NC(=O)[C@H]([C@@H](C)CC)NC(=O)[C@@H]2CCCN2C(=O)[C@@H]2CCCN2C(=O)[C@H](CC(C)(C)C)NC(=O)[C@H](CO)NC(=O)[C@H](CCCNC(=N)N)NC(=O)[C@H](CO)NC1=O
B7: (Abu)-IC+SRS-((tBu)A)-PPIC+IPD-NH2 (peptide)
peptide: [Abu]ICSRS[tBuAla]PPICIPD-NH2
modifications: disulfide 3-11; N-terminus assumed
SMILES: CC[C@H](N)C(=O)N[C@H](C(=O)N[C@H]1CSSC[C@@H](C(=O)N[C@H](C(=O)N2CCC[C@H]2C(=O)N[C@@H](CC(=O)O)C(N)=O)[C@@H](C)CC)NC(=O)[C@H]([C@@H](C)CC)NC(=O)[C@@H]2CCCN2C(=O)[C@@H]2CCCN2C(=O)[C@H](CC(C)(C)C)NC(=O)[C@H](CO)NC(=O)[C@H](CCCNC(=N)N)NC(=O)[C@H](CO)NC1=O)[C@@H](C)CC
B8: (Azetidine-2-carboxylic acid)-IC+SRS-((tBu)A)-PPI-(Pen)+IPD-NH2 (peptide)
peptide: [Aze]ICSRS[tBuAla]PPI[Pen]IPD-NH2
modifications: disulfide 3-11
B9: (Cit)-IC+SRS-((tBu)A)-PPI-(Pen)+IPD-OH (peptide)
peptide: [Cit]ICSRS[tBuAla]PPI[Pen]IPD-OH
modifications: disulfide 3-11; N-terminus assumed
SMILES: CC[C@H](C)[C@H](NC(=O)[C@@H](N)CCCNC(N)=O)C(=O)N[C@H]1CSSC(C)(C)[C@@H](C(=O)N[C@H](C(=O)N2CCC[C@H]2C(=O)N[C@@H](CC(=O)O)C(=O)O)[C@@H](C)CC)NC(=O)[C@H]([C@@H](C)CC)NC(=O)[C@@H]2CCCN2C(=O)[C@@H]2CCCN2C(=O)[C@H](CC(C)(C)C)NC(=O)[C@H](CO)NC(=O)[C@H](CCCNC(=N)N)NC(=O)[C@H](CO)NC1=O
B10: KIC+SRS-((tBu)A)-PPI-((N-Me)C)+I-NH2 (peptide)
peptide: KICSRS[tBuAla]PPI[NMeC]I-NH2
modifications: disulfide 3-11; N-terminus assumed
SMILES: CC[C@H](C)[C@H](NC(=O)[C@@H]1CSSC[C@H](NC(=O)[C@@H](NC(=O)[C@@H](N)CCCCN)[C@@H](C)CC)C(=O)N[C@@H](CO)C(=O)N[C@@H](CCCNC(=N)N)C(=O)N[C@@H](CO)C(=O)N[C@@H](CC(C)(C)C)C(=O)N2CCC[C@H]2C(=O)N2CCC[C@H]2C(=O)N[C@@H]([C@@H](C)CC)C(=O)N1C)C(N)=O
B11: ((N-Me)G)-IC+SRS-((tBu)A)-PPI-(Pen)+IP-(PEG2(13 atoms))-NH2 (peptide)
peptide: [Sar]ICSRS[tBuAla]PPI[Pen]IP[PEG3]-NH2
modifications: disulfide 3-11; N-terminus assumed
SMILES: CC[C@H](C)[C@H](NC(=O)CNC)C(=O)N[C@H]1CSSC(C)(C)[C@@H](C(=O)N[C@H](C(=O)N2CCC[C@H]2C(=O)NCCOCCOCCOCCC(N)=O)[C@@H](C)CC)NC(=O)[C@H]([C@@H](C)CC)NC(=O)[C@@H]2CCCN2C(=O)[C@@H]2CCCN2C(=O)[C@H](CC(C)(C)C)NC(=O)[C@H](CO)NC(=O)[C@H](CCCNC(=N)N)NC(=O)[C@H](CO)NC1=O
B12: LIC+SRS-((tBu)A)-PPI-((N-Me)C)+I-NH2 (peptide)
peptide: LICSRS[tBuAla]PPI[NMeC]I-NH2
modifications: disulfide 3-11; N-terminus assumed
SMILES: CC[C@H](C)[C@H](NC(=O)[C@@H]1CSSC[C@H](NC(=O)[C@@H](NC(=O)[C@@H](N)CC(C)C)[C@@H](C)CC)C(=O)N[C@@H](CO)C(=O)N[C@@H](CCCNC(=N)N)C(=O)N[C@@H](CO)C(=O)N[C@@H](CC(C)(C)C)C(=O)N2CCC[C@H]2C(=O)N2CCC[C@H]2C(=O)N[C@@H]([C@@H](C)CC)C(=O)N1C)C(N)=O
B13: (Orn)-IC+SRS-((tBu)A)-PPI-((N-Me)C)+IPD-NH2 (HCl salt) (peptide)
peptide: [Orn]ICSRS[tBuAla]PPI[NMeC]IPD-NH2
modifications: disulfide 3-11; also: HCl salt
B14: ((N-Me)G)-IC+SRSLP-(Oic)-I-(Pen)+IP-(PEG1(10 atoms))-NH2 (peptide)
peptide: [Sar]ICSRSLP[Oic]I[Pen]IP[PEG2]-NH2
modifications: disulfide 3-11; N-terminus assumed
SMILES: CC[C@H](C)[C@H](NC(=O)CNC)C(=O)N[C@H]1CSSC(C)(C)[C@@H](C(=O)N[C@H](C(=O)N2CCC[C@H]2C(=O)NCCOCCOCCC(N)=O)[C@@H](C)CC)NC(=O)[C@H]([C@@H](C)CC)NC(=O)[C@@H]2C[C@@H]3CCCC[C@@H]3N2C(=O)[C@@H]2CCCN2C(=O)[C@H](CC(C)C)NC(=O)[C@H](CO)NC(=O)[C@H](CCCNC(=N)N)NC(=O)[C@H](CO)NC1=O
B15: ((N-Me)G)-IC+SRSLP-(Oic)-I-(Pen)+IP-NH2 (HCl salt) (peptide)
peptide: [Sar]ICSRSLP[Oic]I[Pen]IP-NH2
modifications: disulfide 3-11; also: HCl salt
B16: (Nva)-IC+SRS-((tBu)A)-PPI-(Pen)+IPD-NH2 (peptide)
peptide: [Nva]ICSRS[tBuAla]PPI[Pen]IPD-NH2
modifications: disulfide 3-11; N-terminus assumed
SMILES: CCC[C@H](N)C(=O)N[C@H](C(=O)N[C@H]1CSSC(C)(C)[C@@H](C(=O)N[C@H](C(=O)N2CCC[C@H]2C(=O)N[C@@H](CC(=O)O)C(N)=O)[C@@H](C)CC)NC(=O)[C@H]([C@@H](C)CC)NC(=O)[C@@H]2CCCN2C(=O)[C@@H]2CCCN2C(=O)[C@H](CC(C)(C)C)NC(=O)[C@H](CO)NC(=O)[C@H](CCCNC(=N)N)NC(=O)[C@H](CO)NC1=O)[C@@H](C)CC
B17: ((N-Me)G)-IC+SRSLP-(Oic)-I-(Pen)+IP-(PEG5-CH2CO2H (18 atoms))-NH2 (peptide)
peptide: [Sar]ICSRSLP[Oic]I[Pen]IP[PEG5‑CH2CO2H (18 atoms)]-NH2
modifications: disulfide 3-11

target: recombinant human MASP2 active protease (amino acids 297-686, C-terminal His Tag) (human, UniProt O00187 297-686); experiment: cell-based or functional assay
Sequence (O00187 other isoform, or with tags, fused parts or gaps limits assumed): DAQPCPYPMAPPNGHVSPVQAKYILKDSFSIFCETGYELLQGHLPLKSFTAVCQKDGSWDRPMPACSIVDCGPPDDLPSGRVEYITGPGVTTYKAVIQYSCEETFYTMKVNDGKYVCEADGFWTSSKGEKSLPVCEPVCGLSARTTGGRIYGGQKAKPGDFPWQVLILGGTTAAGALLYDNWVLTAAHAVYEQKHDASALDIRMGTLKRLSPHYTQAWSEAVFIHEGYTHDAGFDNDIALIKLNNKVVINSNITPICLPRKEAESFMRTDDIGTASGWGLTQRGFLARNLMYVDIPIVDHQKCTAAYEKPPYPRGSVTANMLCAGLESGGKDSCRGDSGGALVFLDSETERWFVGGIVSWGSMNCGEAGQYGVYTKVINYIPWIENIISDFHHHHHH

Binder | human MASP2 IC50 [nM]
B1 | 70
B2 | 150
B3 | 64
B4 | 52
B5 | 63
B6 | 30
B7 | 120
B8 | 68
B9 | 65
B10 | 110
B11 | 42
B12 | 98
B13 | 170
B14 | 87
B15 | 43
B16 | 51
B17 | 110

target: T1, recombinant human MASP1 active protease (amino acids 297-699, C-terminal His Tag) (human, UniProt P48740 297-699); experiment: cell-based or functional assay
T1 sequence: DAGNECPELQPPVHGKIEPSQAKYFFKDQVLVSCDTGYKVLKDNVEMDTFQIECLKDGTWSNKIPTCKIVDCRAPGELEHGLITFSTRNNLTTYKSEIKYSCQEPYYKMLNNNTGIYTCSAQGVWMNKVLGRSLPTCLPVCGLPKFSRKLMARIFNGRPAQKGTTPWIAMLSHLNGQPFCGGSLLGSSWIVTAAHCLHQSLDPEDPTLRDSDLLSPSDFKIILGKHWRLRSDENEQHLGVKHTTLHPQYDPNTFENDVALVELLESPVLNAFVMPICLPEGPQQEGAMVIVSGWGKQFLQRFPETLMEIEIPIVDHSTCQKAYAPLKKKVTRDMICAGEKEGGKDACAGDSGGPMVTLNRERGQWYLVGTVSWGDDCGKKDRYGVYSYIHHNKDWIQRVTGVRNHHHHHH

Binder | human MASP1 IC50 [nM]
B1 | 2.2
B2 | 2.4
B3 | 2.4
B4 | 2.2
B5 | 2.2
B6 | 2.2
B7 | 2.2
B8 | 2.4
B9 | 2.2
B10 | 2.4
B11 | 2.2
B12 | 2.2
B13 | 2.4
B14 | 2.3
B15 | 2.2
B16 | 2.2
B17 | 2.4
